Reference: US20120321609A1, “METHOD OF TREATING PSYCHOLOGICAL DISORDERS” (priority 2011, published 2012)

What was measured:
[1] = target: T1, 5-HT2CR (Homo sapiens, UniProt P28335); assay: 5-HT-stimulated inositol phosphate formation in HEK 293 cells transfected with FLAG-5-HT2CR and HA-CRFR1; assay type: cell-based
T1 construct: expressed in transfected cells; host or cells: HEK 293
T1 sequence (P28335 33-458): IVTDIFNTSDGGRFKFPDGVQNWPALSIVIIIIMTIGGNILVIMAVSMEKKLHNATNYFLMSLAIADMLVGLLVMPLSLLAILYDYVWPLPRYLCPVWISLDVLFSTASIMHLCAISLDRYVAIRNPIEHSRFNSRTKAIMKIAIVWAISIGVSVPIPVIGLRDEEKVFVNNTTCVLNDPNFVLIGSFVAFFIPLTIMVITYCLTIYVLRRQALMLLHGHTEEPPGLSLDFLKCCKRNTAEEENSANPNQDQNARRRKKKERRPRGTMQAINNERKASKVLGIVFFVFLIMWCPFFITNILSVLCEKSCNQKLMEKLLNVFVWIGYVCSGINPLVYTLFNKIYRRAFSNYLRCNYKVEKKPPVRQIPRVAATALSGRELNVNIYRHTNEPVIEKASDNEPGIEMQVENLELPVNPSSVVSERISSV

[2] = test system: 5-HT2AR; assay: Biotinylation of cell surface FLAG-5-HT2AR in HEK 293 cells; assay type: cell-based, human; settings: CRF 500 nM pretreatment 30 min
5-HT2AR, sequence (P28223 whole entry, the tested form may be a part): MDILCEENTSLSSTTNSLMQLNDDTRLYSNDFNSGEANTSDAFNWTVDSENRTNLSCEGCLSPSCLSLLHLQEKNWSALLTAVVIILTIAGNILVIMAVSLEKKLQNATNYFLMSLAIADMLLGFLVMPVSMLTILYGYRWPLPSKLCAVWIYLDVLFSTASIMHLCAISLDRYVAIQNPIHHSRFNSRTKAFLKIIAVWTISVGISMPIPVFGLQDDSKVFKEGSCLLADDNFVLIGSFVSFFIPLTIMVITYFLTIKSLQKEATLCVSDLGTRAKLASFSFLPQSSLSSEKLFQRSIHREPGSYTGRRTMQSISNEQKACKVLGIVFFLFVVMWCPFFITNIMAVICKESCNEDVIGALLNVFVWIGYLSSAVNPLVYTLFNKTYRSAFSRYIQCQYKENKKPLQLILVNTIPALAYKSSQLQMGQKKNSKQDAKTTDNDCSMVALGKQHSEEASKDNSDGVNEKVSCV
Method: HEK 293 cells transiently expressing wild-type and truncated FLAG-5-HT2AR and HA-CRFR1 were seeded into 100 mm dishes and pre-incubated for 30 minutes in HBSS. […] Cell surface receptors were labeled on ice with biotin (1 mg/ml) for 1 hour. Following labeling, cells were washed 3 times with 10 mM glycine and then 2 times with HBSS, lysed and equal amounts of total protein were incubated with neutravidin beads for 2 hours with rotation at 4° C. Beads were then washed 3 times with lysis buffer and one time with PBS. Proteins were eluted from beads by addition of 50 ul of SDS loading buffer. Samples were resolved by SDS-PAGE, transferred to nitrocellulose membrane and subsequently immunoblotted as described above with rabbit polyclonal FLAG antibody.

[3] = target: T2, 5-HT2AR (Homo sapiens, UniProt P28223); assay: 5-HT-stimulated inositol phosphate formation in HEK 293 cells co-expressing CRFR2 and 5-HT2AR; assay type: cell-based; settings: CRF 500 nM pretreatment 30 min
T2 construct: expressed in transfected cells; host or cells: HEK 293
T2 sequence (P28223 whole entry): as the sequence (P28223 whole entry, the tested form may be a part) above

[4] = test system: ERK1/2; assay: ERK1/2 phosphorylation immunoblot in HEK 293 cells; assay type: cell-based, human; settings: 500 nM CRF; 0, 2, 5, 15 and 30 min
Method: Following transfection, HEK 293 cells were re-seeded into 6-well plates. […] Cells were lysed with lysis buffer (50 mM Tris, pH 8.0, 150 mM NaCl, and 0.1% Triton X-100) containing protease inhibitors (1 mM AEBSF, 10 μg/ml leupeptin, and 5 μg/ml aprotinin) for 20 min on a rocking platform at 4° C. Samples were collected into 1.5 mL Eppendorf tubes and centrifuged at 15,000 g for 15 min at 4° C. to pellet insoluble material. A […] protein assay was performed and 50 μg of protein was incubated overnight at room temperature in 3×SDS Loading Buffer containing 2-mercaptoethanol. Samples were separated by SDS-PAGE, transferred to a nitrocellulose membrane, and immunoblotted for ERK1/2 (rabbit anti-p44/42 mitogen-activated protein kinase (MAPK), 1:1000), phospho-ERK1/2 (rabbit anti-phospho-p44/42 MAPK, 1:1000), SAP97 (mouse anti-SAP97, 1:1000), and HA-CRFR1 expression (mouse anti-HA, 1:1000), followed by a horseradish peroxidase-conjugated secondary anti-rabbit antibody (1:10,000) or anti-mouse antibody (1:10,000) where appropriate. Proteins were detected using chemiluminescence with the enhanced chemiluminescence kit from GE Healthcare.

CRF: 41 amino acid peptide that activates the HPA axis; agonist of CRF receptors
inositol phosphate formation by CRF treatment itself ([1]; CRF 500 nM 30 min, cells expressing 5-HT2CR alone, CRFR1 alone or both receptors): did not result in inositol phosphate formation
increase in maximum efficacy (EMAX) for 5-HT2CR-stimulated inositol phosphate formation ([1]; CRF pretreatment 500 nM for 30 min, cells expressing 5-HT2CR along with CRFR1): 47±5.5%
effect of pretreatment on 5-HT dose-response curve for inositol phosphate formation, 5-HT2CR ([1]; HEK 293 cells expressing 5-HT2CR in the absence of CRFR1, CRF 500 nM 30 min): had no effect
increase in cell surface expression of the 5-HT2AR [2]: 3.7±1.8 fold
effect of pretreatment on 5-HT2AR-stimulated inositol phosphate responses [3]: did not increase
ERK1/2 phosphorylation in cells transfected with HA-CRFR1 and scrambled shRNA [4]: more robust and sustained activation
ERK1/2 phosphorylation in non-transfected HEK 293 cells [4]: increase in detectable ERK1/2 phosphorylation at 5 min
